T1: ARHGEF11, O15085
T1 sequence (O15085 42-136, limits assumed, looked up): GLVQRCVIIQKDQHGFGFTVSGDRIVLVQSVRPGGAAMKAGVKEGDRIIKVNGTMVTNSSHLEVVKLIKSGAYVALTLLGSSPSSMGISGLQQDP

T2: CARD11, Q9BXL7
T2 sequence (Q9BXL7 662-765, limits assumed, looked up): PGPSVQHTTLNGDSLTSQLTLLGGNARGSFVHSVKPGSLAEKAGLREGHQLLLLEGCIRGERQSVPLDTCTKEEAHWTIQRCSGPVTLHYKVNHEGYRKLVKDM

T3: DVL3, Q92997
T3 sequence (Q92997 244-331, limits assumed, looked up): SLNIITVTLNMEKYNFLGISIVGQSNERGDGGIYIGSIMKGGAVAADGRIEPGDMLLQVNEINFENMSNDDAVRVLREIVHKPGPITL

T4: GRIP1_3, Q9Y3R0
T4 sequence (Q9Y3R0 247-346, limits assumed, looked up): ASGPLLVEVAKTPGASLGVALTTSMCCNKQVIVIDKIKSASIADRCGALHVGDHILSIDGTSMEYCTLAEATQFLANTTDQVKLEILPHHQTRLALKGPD

T5: GRIP1_7, Q9Y3R0
T5 sequence (Q9Y3R0 999-1096, limits assumed, looked up): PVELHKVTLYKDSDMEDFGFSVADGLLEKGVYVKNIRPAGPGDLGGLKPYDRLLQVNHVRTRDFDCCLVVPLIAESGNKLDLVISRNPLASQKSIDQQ

T6: HTRA3, P83110
T6 sequence (P83110 354-453, limits assumed, looked up): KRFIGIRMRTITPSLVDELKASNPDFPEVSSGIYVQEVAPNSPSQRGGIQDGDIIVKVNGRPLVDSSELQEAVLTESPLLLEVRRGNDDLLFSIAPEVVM

T7: LNX2_3, Q8N448
T7 sequence (Q8N448 463-564, limits assumed, looked up): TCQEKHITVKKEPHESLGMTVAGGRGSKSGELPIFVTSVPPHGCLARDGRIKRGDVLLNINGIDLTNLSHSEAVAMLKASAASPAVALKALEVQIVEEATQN

T8: LRRC7, Q96NW7
T8 sequence (Q96NW7 1440-1537, limits assumed, looked up): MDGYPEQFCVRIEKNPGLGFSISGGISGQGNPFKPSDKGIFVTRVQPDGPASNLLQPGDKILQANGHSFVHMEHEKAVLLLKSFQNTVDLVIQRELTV

T9: MPDZ_12, O75970
T9 sequence (O75970 1857-1958, limits assumed, looked up): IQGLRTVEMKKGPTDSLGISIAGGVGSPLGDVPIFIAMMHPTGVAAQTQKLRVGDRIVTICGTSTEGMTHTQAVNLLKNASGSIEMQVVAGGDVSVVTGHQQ

T10: RHPN1, Q8TCX5
T10 sequence (Q8TCX5 508-602, limits assumed, looked up): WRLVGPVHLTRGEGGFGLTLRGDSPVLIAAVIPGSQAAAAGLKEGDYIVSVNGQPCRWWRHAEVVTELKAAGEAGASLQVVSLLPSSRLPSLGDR


What follows are binders tested against T1, ARHGEF11, O15085 (assay: holdup assay). Conditions: plain residues with an end cap or a label only (N-terminal biotin on a linker: ado-ado).
Design: key: below the threshold = too weak to quantify, mostly under pKd 3.1 to 4

Binder | pKd
NASRTRITFV [MCM7, P33993] | 4.35
ETSLVKGIDI [DENND5A, Q6IQ26] | 3.79

The binders below were run against T2, CARD11, Q9BXL7 (assay: holdup assay). Conditions: plain residues with an end cap or a label only (N-terminal biotin on a linker: ado-ado).
Design: key: below the threshold = too weak to quantify, mostly under pKd 3.1 to 4

Binder | pKd
NASRTRITFV [MCM7, P33993] | below the threshold
ETSLVKGIDI [DENND5A, Q6IQ26] | below the threshold

What follows are binders tested against DLG5_1, Q8TDM6 (assay: holdup assay). Conditions: plain residues with an end cap or a label only (N-terminal biotin on a linker: ado-ado).
Design: key: below the threshold = too weak to quantify, mostly under pKd 3.1 to 4

Sequence of DLG5_1, Q8TDM6 (Q8TDM6 617-713): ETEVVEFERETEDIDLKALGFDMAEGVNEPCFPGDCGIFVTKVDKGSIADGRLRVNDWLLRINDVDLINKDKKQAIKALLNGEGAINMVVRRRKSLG

Binder | pKd
NASRTRITFV [MCM7, P33993] | below the threshold
ETSLVKGIDI [DENND5A, Q6IQ26] | below the threshold

What follows are binders tested against T3, DVL3, Q92997 (assay: holdup assay). Conditions: plain residues with an end cap or a label only (N-terminal biotin on a linker: ado-ado).
Design: key: below the threshold = too weak to quantify, mostly under pKd 3.1 to 4

Binder | pKd
NASRTRITFV [MCM7, P33993] | 3.96
ETSLVKGIDI [DENND5A, Q6IQ26] | below the threshold

These binders were tested against GIPC2, Q8TF65 (assay: holdup assay). Conditions: plain residues with an end cap or a label only (N-terminal biotin on a linker: ado-ado).
Design: key: below the threshold = too weak to quantify, mostly under pKd 3.1 to 4

Sequence of GIPC2, Q8TF65 (Q8TF65 112-203): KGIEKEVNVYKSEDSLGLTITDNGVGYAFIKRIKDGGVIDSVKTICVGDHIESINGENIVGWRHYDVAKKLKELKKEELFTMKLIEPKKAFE

Binder | pKd
NASRTRITFV [MCM7, P33993] | below the threshold
ETSLVKGIDI [DENND5A, Q6IQ26] | 3.54

What follows are binders tested against GRASP, Q7Z6J2 (assay: holdup assay). Conditions: plain residues with an end cap or a label only (N-terminal biotin on a linker: ado-ado).
Design: key: below the threshold = too weak to quantify, mostly under pKd 3.1 to 4

Sequence of GRASP, Q7Z6J2 (Q7Z6J2 96-193): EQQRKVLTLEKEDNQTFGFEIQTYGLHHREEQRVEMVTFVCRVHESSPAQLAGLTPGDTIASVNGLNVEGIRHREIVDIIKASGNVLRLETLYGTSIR

Binder | pKd
NASRTRITFV [MCM7, P33993] | 4.53
ETSLVKGIDI [DENND5A, Q6IQ26] | below the threshold

Each binder was assayed against T4, GRIP1_3, Q9Y3R0 (assay: holdup assay). Conditions: plain residues with an end cap or a label only (N-terminal biotin on a linker: ado-ado).
Design: key: below the threshold = too weak to quantify, mostly under pKd 3.1 to 4

Binder | pKd
NASRTRITFV [MCM7, P33993] | below the threshold
ETSLVKGIDI [DENND5A, Q6IQ26] | below the threshold

Each binder was assayed against T5, GRIP1_7, Q9Y3R0 (assay: holdup assay). Conditions: plain residues with an end cap or a label only (N-terminal biotin on a linker: ado-ado).
Design: key: below the threshold = too weak to quantify, mostly under pKd 3.1 to 4

Binder | pKd
NASRTRITFV [MCM7, P33993] | below the threshold
ETSLVKGIDI [DENND5A, Q6IQ26] | below the threshold

Each binder was assayed against GRIP2_5, Q9C0E4 (assay: holdup assay). Conditions: plain residues with an end cap or a label only (N-terminal biotin on a linker: ado-ado).
Design: key: below the threshold = too weak to quantify, mostly under pKd 3.1 to 4

Sequence of GRIP2_5, Q9C0E4 (Q9C0E4 544-642): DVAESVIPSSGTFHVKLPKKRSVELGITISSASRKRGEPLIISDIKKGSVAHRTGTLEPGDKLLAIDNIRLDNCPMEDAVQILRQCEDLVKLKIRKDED

Binder | pKd
NASRTRITFV [MCM7, P33993] | below the threshold
ETSLVKGIDI [DENND5A, Q6IQ26] | below the threshold

What follows are binders tested against T6, HTRA3, P83110 (assay: holdup assay). Conditions: plain residues with an end cap or a label only (N-terminal biotin on a linker: ado-ado).
Design: key: below the threshold = too weak to quantify, mostly under pKd 3.1 to 4

Binder | pKd
NASRTRITFV [MCM7, P33993] | 4.51
ETSLVKGIDI [DENND5A, Q6IQ26] | 3.91

Each binder was assayed against IL16_1, Q14005 (assay: holdup assay). Conditions: plain residues with an end cap or a label only (N-terminal biotin on a linker: ado-ado).
Design: key: below the threshold = too weak to quantify, mostly under pKd 3.1 to 4

Sequence of IL16_1, Q14005 (Q14005 210-306): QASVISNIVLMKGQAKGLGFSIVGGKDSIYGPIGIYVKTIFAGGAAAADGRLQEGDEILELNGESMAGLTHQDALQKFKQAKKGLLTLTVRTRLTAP

Binder | pKd
NASRTRITFV [MCM7, P33993] | below the threshold
ETSLVKGIDI [DENND5A, Q6IQ26] | below the threshold

These binders were tested against Inadl_10, Q8NI35 (assay: holdup assay). Conditions: plain residues with an end cap or a label only (N-terminal biotin on a linker: ado-ado).
Design: key: below the threshold = too weak to quantify, mostly under pKd 3.1 to 4

Sequence of Inadl_10, Q8NI35 (Q8NI35 1673-1763): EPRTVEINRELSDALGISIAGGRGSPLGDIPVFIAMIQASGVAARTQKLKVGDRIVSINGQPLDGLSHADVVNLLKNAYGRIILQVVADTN

Binder | pKd
NASRTRITFV [MCM7, P33993] | below the threshold
ETSLVKGIDI [DENND5A, Q6IQ26] | below the threshold

The binders below were run against LDB3, O75112 (assay: holdup assay). Conditions: plain residues with an end cap or a label only (N-terminal biotin on a linker: ado-ado).
Design: key: below the threshold = too weak to quantify, mostly under pKd 3.1 to 4

Sequence of LDB3, O75112 (O75112 1-94): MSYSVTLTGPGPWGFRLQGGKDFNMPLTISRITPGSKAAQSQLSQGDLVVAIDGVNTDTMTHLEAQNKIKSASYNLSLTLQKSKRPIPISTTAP

Binder | pKd
NASRTRITFV [MCM7, P33993] | below the threshold
ETSLVKGIDI [DENND5A, Q6IQ26] | 3.51

What follows are binders tested against LNX1_1, Q8TBB1 (assay: holdup assay). Conditions: plain residues with an end cap or a label only (N-terminal biotin on a linker: ado-ado).
Design: key: below the threshold = too weak to quantify, mostly under pKd 3.1 to 4

Sequence of LNX1_1, Q8TBB1 (Q8TBB1 261-371): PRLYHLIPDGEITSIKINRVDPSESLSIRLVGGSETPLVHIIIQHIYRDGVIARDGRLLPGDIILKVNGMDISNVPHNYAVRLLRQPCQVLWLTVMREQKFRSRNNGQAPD

Binder | pKd
NASRTRITFV [MCM7, P33993] | 4.3
ETSLVKGIDI [DENND5A, Q6IQ26] | 3.79

These binders were tested against LNX1_3, Q8TBB1 (assay: holdup assay). Conditions: plain residues with an end cap or a label only (N-terminal biotin on a linker: ado-ado).
Design: key: below the threshold = too weak to quantify, mostly under pKd 3.1 to 4

Sequence of LNX1_3, Q8TBB1 (Q8TBB1 500-596): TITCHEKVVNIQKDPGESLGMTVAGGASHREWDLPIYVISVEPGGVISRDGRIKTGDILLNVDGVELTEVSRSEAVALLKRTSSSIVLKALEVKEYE

Binder | pKd
NASRTRITFV [MCM7, P33993] | below the threshold
ETSLVKGIDI [DENND5A, Q6IQ26] | below the threshold

What follows are binders tested against T7, LNX2_3, Q8N448 (assay: holdup assay). Conditions: plain residues with an end cap or a label only (N-terminal biotin on a linker: ado-ado).
Design: key: below the threshold = too weak to quantify, mostly under pKd 3.1 to 4

Binder | pKd
NASRTRITFV [MCM7, P33993] | below the threshold
ETSLVKGIDI [DENND5A, Q6IQ26] | below the threshold

What follows are binders tested against T8, LRRC7, Q96NW7 (assay: holdup assay). Conditions: plain residues with an end cap or a label only (N-terminal biotin on a linker: ado-ado).
Design: key: below the threshold = too weak to quantify, mostly under pKd 3.1 to 4

Binder | pKd
NASRTRITFV [MCM7, P33993] | below the threshold
ETSLVKGIDI [DENND5A, Q6IQ26] | below the threshold

What follows are binders tested against MAGI1_2, Q96QZ7 (assay: holdup assay). Conditions: plain residues with an end cap or a label only (N-terminal biotin on a linker: ado-ado).
Design: key: below the threshold = too weak to quantify, mostly under pKd 3.1 to 4

Sequence of MAGI1_2, Q96QZ7 (Q96QZ7 456-580): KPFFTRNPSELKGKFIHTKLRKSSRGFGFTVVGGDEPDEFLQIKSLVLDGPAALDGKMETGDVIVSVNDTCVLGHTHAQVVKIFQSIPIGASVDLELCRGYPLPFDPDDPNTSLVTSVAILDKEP

Binder | pKd
NASRTRITFV [MCM7, P33993] | 4.71
ETSLVKGIDI [DENND5A, Q6IQ26] | below the threshold

These binders were tested against MAGI2_3, Q86UL8 (assay: holdup assay). Conditions: plain residues with an end cap or a label only (N-terminal biotin on a linker: ado-ado).
Design: key: below the threshold = too weak to quantify, mostly under pKd 3.1 to 4

Sequence of MAGI2_3, Q86UL8 (Q86UL8 600-682): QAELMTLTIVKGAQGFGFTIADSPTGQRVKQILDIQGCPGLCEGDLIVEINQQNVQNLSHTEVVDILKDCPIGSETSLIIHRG

Binder | pKd
NASRTRITFV [MCM7, P33993] | 4.99
ETSLVKGIDI [DENND5A, Q6IQ26] | below the threshold

These binders were tested against T9, MPDZ_12, O75970 (assay: holdup assay). Conditions: plain residues with an end cap or a label only (N-terminal biotin on a linker: ado-ado).
Design: key: below the threshold = too weak to quantify, mostly under pKd 3.1 to 4

Binder | pKd
NASRTRITFV [MCM7, P33993] | 3.77
ETSLVKGIDI [DENND5A, Q6IQ26] | 3.6

The binders below were run against NHERF4_1, Q86UT5-2 (assay: holdup assay). Conditions: plain residues with an end cap or a label only (N-terminal biotin on a linker: ado-ado).
Design: key: below the threshold = too weak to quantify, mostly under pKd 3.1 to 4

Sequence of NHERF4_1, Q86UT5-2 (Q86UT5 other isoform, or with tags, fused parts or gaps): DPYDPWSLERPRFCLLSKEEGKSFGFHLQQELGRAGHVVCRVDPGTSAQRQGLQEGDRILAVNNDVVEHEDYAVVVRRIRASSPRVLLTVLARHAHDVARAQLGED

Binder | pKd
NASRTRITFV [MCM7, P33993] | 4.12
ETSLVKGIDI [DENND5A, Q6IQ26] | 3.59

What follows are binders tested against NHERF4_2, Q86UT5 (assay: holdup assay). Conditions: plain residues with an end cap or a label only (N-terminal biotin on a linker: ado-ado).
Design: key: below the threshold = too weak to quantify, mostly under pKd 3.1 to 4

Sequence of NHERF4_2, Q86UT5 (Q86UT5 220-308): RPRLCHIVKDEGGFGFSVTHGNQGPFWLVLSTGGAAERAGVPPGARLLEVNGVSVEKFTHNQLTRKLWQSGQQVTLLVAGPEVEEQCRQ

Binder | pKd
NASRTRITFV [MCM7, P33993] | below the threshold
ETSLVKGIDI [DENND5A, Q6IQ26] | below the threshold

What follows are binders tested against NHERF4_4, Q86UT5 (assay: holdup assay). Conditions: plain residues with an end cap or a label only (N-terminal biotin on a linker: ado-ado).
Design: key: below the threshold = too weak to quantify, mostly under pKd 3.1 to 4

Sequence of NHERF4_4, Q86UT5 (Q86UT5 464-550): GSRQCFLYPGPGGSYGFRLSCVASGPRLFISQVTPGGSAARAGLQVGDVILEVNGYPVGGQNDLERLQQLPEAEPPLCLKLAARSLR

Binder | pKd
NASRTRITFV [MCM7, P33993] | below the threshold
ETSLVKGIDI [DENND5A, Q6IQ26] | 3.87

Each binder was assayed against PDZRN4_1, Q6ZMN7 (assay: holdup assay). Conditions: plain residues with an end cap or a label only (N-terminal biotin on a linker: ado-ado).
Design: key: below the threshold = too weak to quantify, mostly under pKd 3.1 to 4

Sequence of PDZRN4_1, Q6ZMN7 (Q6ZMN7 213-318): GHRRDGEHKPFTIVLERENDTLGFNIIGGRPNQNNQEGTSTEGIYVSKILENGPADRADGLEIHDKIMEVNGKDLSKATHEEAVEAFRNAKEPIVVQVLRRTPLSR

Binder | pKd
NASRTRITFV [MCM7, P33993] | below the threshold
ETSLVKGIDI [DENND5A, Q6IQ26] | below the threshold

These binders were tested against T10, RHPN1, Q8TCX5 (assay: holdup assay). Conditions: plain residues with an end cap or a label only (N-terminal biotin on a linker: ado-ado).
Design: key: below the threshold = too weak to quantify, mostly under pKd 3.1 to 4

Binder | pKd
NASRTRITFV [MCM7, P33993] | 4.48
ETSLVKGIDI [DENND5A, Q6IQ26] | 3.56

These binders were tested against SCRIB_1, Q14160 (assay: holdup assay). Conditions: plain residues with an end cap or a label only (N-terminal biotin on a linker: ado-ado).
Design: key: below the threshold = too weak to quantify, mostly under pKd 3.1 to 4

Sequence of SCRIB_1, Q14160 (Q14160 718-814): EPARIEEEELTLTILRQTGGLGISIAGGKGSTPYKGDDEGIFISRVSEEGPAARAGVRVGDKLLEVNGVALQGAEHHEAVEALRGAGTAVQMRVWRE

Binder | pKd
NASRTRITFV [MCM7, P33993] | 4.26
ETSLVKGIDI [DENND5A, Q6IQ26] | below the threshold

The binders below were run against TJP1_2, Q07157 (assay: holdup assay). Conditions: plain residues with an end cap or a label only (N-terminal biotin on a linker: ado-ado).
Design: key: below the threshold = too weak to quantify, mostly under pKd 3.1 to 4

Sequence of TJP1_2, Q07157 (Q07157 181-274): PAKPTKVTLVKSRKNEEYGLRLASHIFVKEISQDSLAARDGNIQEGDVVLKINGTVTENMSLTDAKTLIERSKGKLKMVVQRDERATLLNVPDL

Binder | pKd
NASRTRITFV [MCM7, P33993] | 3.62
ETSLVKGIDI [DENND5A, Q6IQ26] | 4.03

These binders were tested against TJP1_3, Q07157 (assay: holdup assay). Conditions: plain residues with an end cap or a label only (N-terminal biotin on a linker: ado-ado).
Design: key: below the threshold = too weak to quantify, mostly under pKd 3.1 to 4

Sequence of TJP1_3, Q07157 (Q07157 416-512): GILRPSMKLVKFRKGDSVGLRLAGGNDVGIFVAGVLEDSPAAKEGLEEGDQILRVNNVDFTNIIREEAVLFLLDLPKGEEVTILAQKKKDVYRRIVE

Binder | pKd
NASRTRITFV [MCM7, P33993] | below the threshold
ETSLVKGIDI [DENND5A, Q6IQ26] | below the threshold
